The values that follow come from patent US10919943B2, “Mutant proteins enabling agrochemical control of plant gene expression” (The Regents of the University of California, priority 2016, dated 2021).

One assay relates to Arabidopsis. Kind of assay: Overexpression of HAB1^!-2 (35S::GFP-HAB1^!-2) in Arabidopsis, T1 plant phenotype. Type of assay: in vivo. The source says: To investigate the effects of overexpressing HAB1^!-2 in Arabidopsis, we used Agrobacterium mediated transformation to generate 35S::GFP-HAB1^!-2 transgenic plants. HAB1^!-2 was cloned from pACT-HAB1^!-2 into pEGAD, a binary vector suitable for plant transformation, generating a 35S-driven GFP-HAB1^!-2 fusion protein. The clone was transformed into Agrobacterium and the floral dip method used to transform Arabidopsis. After selection of T0 seed on soil containing glufosinate, several T1 seedlings were identified. […] As an alternate strategy, we eliminated HAB1's catalytic activity by introducing a mutation in a conserved metal-ion binding residue (D204), which is homologous to D131A mutation in ABI1, previously shown to eliminate phosphatase activity without disrupting wild type receptor-ABI1 interactions (Liang et al., 2011). We used QuickChange mutagenesis to introduce the D204A mutation into pACT-HAB1^!-2, generating pACT-HAB1^!-3. When tested for mandipropamid induced interactions with pBD-PYR1*^-MANDI, HAB1^!-3 is ˜10-fold less sensitive to mandipropamid relative to HAB1^!-2 (FIG. 5).

Assay [1] concerns HAB1. Kind of assay: In vitro PP2C assay, ligand-promoted inhibition of GST-HAB1 by receptor. The format is biochemical, Arabidopsis. Particulars: ABA-promoted; FIG. 2. From the text: (§1) In the presence of ABA, wild type PYR1 binds to HAB1 and docks into its active site, which inhibits its enzymatic activity by blocking access of substrates. To characterize the orthogonal PYR1^! and HAB1^! interaction biochemically, we produced recombinant forms of each protein in E. coli, along with the wild type form, and tested the wild type and orthogonal mutant for their ability to inhibit HAB1 and HAB1^! activities in vitro. We cloned PYR1^! into pET28 to generate 6×-His tagged receptor and cloned HAB1^! into pGEX-4T-1 to create a GST-fusion protein. The previously constructed (S.-Y. Park et al., 2009) wild type 6×-His-PYR1 and GST-HAB1 constructs were used for producing recombinant wild type proteins. The 6×-His-tagged receptors and GST-tagged PP2Cs were expressed and purified as previously described. Briefly, the proteins were expressed in BL21 [DE3]pLysS E. coli host cells at 18° C. overnight. Fusion proteins were purified from sonicated lysates using Ni-NTA agarose (Qiagen, USA) or Pierce™ Glutathione Agarose (Thermo Scientific) according to the manufacturer's instructions. PP2C assays were conducted in 96-well polystyrene flat-bottom microtitre plates (Greiner). […] The plates were read using a Victor 2 plate reader (PerkinElmer) (355 nm excitation, 460 nm emission) and assays run in triplicate. The PP2C activity values reported are expressed as percent control values, which were calculated by including the carrier solvent (1% DMSO) and the specific receptor assayed, but no ligand. […]
According to our current understanding, in order for ABA signaling to be initiated in vivo, PP2C activity must be inhibited to enable accumulation of active SnRK2 kinases. […] 4-methylumbeliferyl phosphate was added (1 mM final concentration) was added to the reactions after 30 minutes equilibration and plates were read by fluorimetry. The PP2C activity values reported are expressed as percent control values, which was calculated by including the carrier solvent (1% DMSO) and the specific receptor assayed, but no ligand.

Assay [2] has as its system HAB1. Kind of assay: Yeast two hybrid of pBD-PYR1 site saturation mutants with pACT-HAB1 on 10 μM ABA, β-galactosidase staining. The format is cell-based, Arabidopsis. Also noted: key: x: Mutations in PYR1 that disrupt ABA-induced binding to PYR1 to HAB1. Particulars: S. cerevisiae Y190, 10 μM ABA; dead = lack of visible staining in comparison to wild type control. The essentials:
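S. cerevisiae Y190 co-expressing GAL4-DNA-binding-domain–PYR1 mutants and GAL4-activation-domain–HAB1 were spotted on SD (-Leu, -Trp) agar with 10 μM (+)-ABA for 2 days at 30° C. Colonies were chloroform-lysed and stained for β-galactosidase. Mutants lacking visible staining relative to wild type were scored as non-binding.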

Assay [3] addresses T1, HAB1^! (Arabidopsis thaliana).
T1 construct: 6xHis (N); made in house; host or cells: E. coli BL21 [DE3]pLysS
Kind of assay: In vitro PP2C assay, ABA-promoted inhibition of GST-HAB1^! by receptor. Type of assay: biochemical. Particulars: in response to ABA; 100 nM receptor, 50 nM PP2C; FIG. 2.
Description: as §1, with “overnight.” for “overnight. Fusion proteins were purified from sonicated lysates using Ni-NTA agarose (Qiagen, USA) or Pierce™ Glutathione Agarose (Thermo Scientific) according to the manufacturer's instructions. PP2C assays were conducted in 96-well polystyrene flat-bottom microtitre plates (Greiner).”

The target in a further assay is T2, HAB1^! (Arabidopsis thaliana, UniProt O49686+Q9CAJ0, F108A/F159L/K59R/S122G/T162D/V393R/V81I/Y58H).
T2 construct: expressed in transfected cells
Kind of assay: Yeast two hybrid, mandipropamid-promoted interaction of PYR1 variants with HAB1^!
The format is cell-based. The following applies: FIG. 3. From the text: (§2) To engineer orthogonal mandipropamid responsiveness, we introduced the PYR1^! mutation into the PYR1^MANDI receptor to create a septuple mutant called PYR1^!-MANDI (PYR1^Y58H;K59R;V81I;F108A;S122G;F159L;T162D). This mutant interacts with HAB1^! and HAB^!-2 in response to low μM mandipropamid in yeast two-hybrid assays, but is ˜100-fold less sensitive than the PYR1^MANDI/HAB1 interaction, which responds to concentrations in the low nM range (FIG. 3).

Another assay has as its system HAB1^!-2. Kind of assay: Yeast two hybrid, mandipropamid-promoted interaction of PYR1 variants with HAB1^!-2. The format is cell-based. The following applies: FIG. 3, FIG. 4.
Description: as §2
To improve sensitivity, we mutagenized ligand contacting and interface residues in PYR1^!-MANDI using NNK primers, pooled the mutant libraries, and used the mutagenized receptors in selection experiments using to identify enhancer mutations. The NNK mutagenesis screen targeted the following residues: P55, H60, F61, I62, K63, V83, S85, G86, L87, P88, A89, S92, E94, I110, H115, R116, L117, Y120, E141, P148, G150, N151, D154, D155, T156, M158, A160, V163, V164, L166, N167, and K170. […] Since M158 and A160 flank the […] mutation present in PYR1^MANDI, we inferred that the closely located orthogonalizing T162D mutation in PYR1^!-MANDI may have reduced mandipropamid sensitivity by altering the local structure of the C-terminal α3-helix, which participates in ligand-induced conformational changes needed for PP2C binding (Nishimura et al., 2009). We therefore simultaneously mutagenized positions M158, F159 and A160 using a primer with degenerate NNK codons at all three positions. F159 was included in this mutagenesis because we have previously observed that multiple substitutions at F159 (A,C,I,L,M,T, or V) are permissive for mandipropamid responsiveness (S. Y. Park et al., n.d.), and sought to test whether residues other than leucine at position 159 might function better in the context of simultaneous changes to both A160 and M158. The mutagenic primer was used in QuickChange mutagenesis reactions using pBD-PYR1^!-MANDI template, and a library of ˜12,000 clones was generated. Plasmid DNA for the library was prepared from pooled E. coli transformants, and subsequently transformed into S. cerevisiae strain MAV99 harboring pACT-HAB1^!-2. ˜20,000 yeast transformants were generated, pooled, and plated onto SD(-Leu,-Trp) agar media supplemented with 0.1% fluorotic acid (to select against mutants that interact in a ligand-independent fashion). The surviving cells were collected and plated onto SD(Leu,-Trp,-Ura) plates supplemented with 50 nM mandipropamid. The colonies displaying the best uracil-independent growth were isolated and retested on different mandipropamid concentrations and then stained in β-galactosidase assays to rank their relative strength.

T2 sequence (Q9CAJ0 4-511 V393R, one chain of several): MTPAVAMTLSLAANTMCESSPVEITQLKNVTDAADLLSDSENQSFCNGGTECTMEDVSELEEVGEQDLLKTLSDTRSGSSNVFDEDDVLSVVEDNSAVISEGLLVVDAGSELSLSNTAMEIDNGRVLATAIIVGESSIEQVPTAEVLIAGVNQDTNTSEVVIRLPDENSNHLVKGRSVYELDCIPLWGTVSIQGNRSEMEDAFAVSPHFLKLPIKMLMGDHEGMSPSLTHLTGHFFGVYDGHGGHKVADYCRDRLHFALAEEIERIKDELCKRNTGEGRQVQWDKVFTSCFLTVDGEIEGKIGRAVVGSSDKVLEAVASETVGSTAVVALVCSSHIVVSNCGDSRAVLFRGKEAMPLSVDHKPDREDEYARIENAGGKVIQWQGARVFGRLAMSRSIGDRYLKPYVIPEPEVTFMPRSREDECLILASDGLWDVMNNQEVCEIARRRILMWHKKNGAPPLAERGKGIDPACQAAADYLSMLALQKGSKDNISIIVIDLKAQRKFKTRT

B1: HAB1^!-2: HAB1 double mutant V393R, R505A (protein)
chain: MTPAVAMTLSLAANTMCESSPVEITQLKNVTDAADLLSDSENQSFCNGGTECTMEDVSELEEVGEQDLLKTLSDTRSGSSNVFDEDDVLSVVEDNSAVISEGLLVVDAGSELSLSNTAMEIDNGRVLATAIIVGESSIEQVPTAEVLIAGVNQDTNTSEVVIRLPDENSNHLVKGRSVYELDCIPLWGTVSIQGNRSEMEDAFAVSPHFLKLPIKMLMGDHEGMSPSLTHLTGHFFGVYDGHGGHKVADYCRDRLHFALAEEIERIKDELCKRNTGEGRQVQWDKVFTSCFLTVDGEIEGKIGRAVVGSSDKVLEAVASETVGSTAVVALVCSSHIVVSNCGDSRAVLFRGKEAMPLSVDHKPDREDEYARIENAGGKVIQWQGARVFGRLAMSRSIGDRYLKPYVIPEPEVTFMPRSREDECLILASDGLWDVMNNQEVCEIARRRILMWHKKNGAPPLAERGKGIDPACQAAADYLSMLALQKGSKDNISIIVIDLKAQAKFKTRT
modifications: left off: small tags and cut ends
notes: HAB1 double mutant V393R, R505A
In the case of B1, the “phenotype of T1 plants” value in the assay with Arabidopsis is “symptoms of severe ABA insensitivity, including dwarf stature and high sensitivity to water deficit”.

B2: T162D: PYR1 mutant T162D, denoted PYR1^! (protein, UniProt O49686 1-191, looked up, variant T162D)
Abscisic acid receptor PYR1: MPSELTPEERSELKNSIAEFHTYQLDPGSCSSLHAQRIHAPPELVWSIVRRFDKPQTYKHFIKSCSVEQNFEMRVGCTRDVIVISGLPANTSTERLDILDDERRVTGFSIIGGEHRLTNYKSVTTVHRFEKENRIWTVVLESYVVDMPEGNSEDDTRMFADDVVKLNLQKLATVAEAMARNSGDGSGSQVT
Consider B2, for which, in the assay with HAB1 [1], the “inhibition of HAB1 phosphatase activity” value is “unable to inhibit”. For the same molecule, the “Mutations in PYR1 that disrupt ABA-induced binding to PYR1 to HAB1” value in the assay with HAB1 [2] is listed as “x”. For the same molecule, in assay [3], the “inhibition of HAB1^! phosphatase activity” value is “does not strongly inhibit”.

B3: PYR1^!-MANDI: septuple PYR1 mutant (protein, UniProt O49686 1-191, looked up, variant Y58H K59R V81I F108A S122G F159L T162D)
Abscisic acid receptor PYR1: MPSELTPEERSELKNSIAEFHTYQLDPGSCSSLHAQRIHAPPELVWSIVRRFDKPQTHRHFIKSCSVEQNFEMRVGCTRDIIVISGLPANTSTERLDILDDERRVTGASIIGGEHRLTNYKGVTTVHRFEKENRIWTVVLESYVVDMPEGNSEDDTRMLADDVVKLNLQKLATVAEAMARNSGDGSGSQVT
Turning to B3, the “mandipropamid concentration to which the interaction responds” value in the assay with HAB1^! and in the assay on HAB1^!-2 was “low μM” throughout.
